molecular target: recombinant SARS-CoV-2 spike protein (SARS-CoV-2) (UniProt P0DTC2); test: SPR

| Substance | Kd [nM] |
| --- | --- |
| HMGB1-A box (aa 1–79), 6x His-tagged (from UniProt P09429 1-79) (domain or fragment) | 6100 |
| HMGB1-B box (aa 89–162), 6x His-tagged (from UniProt P09429 89-162) (domain or fragment) | 1020 |
| acidic C-tail-deleted HMGB1 (HMGB1-ΔC, aa 1–186), 6x His-tagged (from UniProt P09429 1-186) (domain or fragment) | 1380 |
| full-length HMGB1 (HMGB1-WT), 6x His-tagged (from UniProt P09429 1-215) (natural protein) | 3550 |

Source: paper PMC12307675
